In series [1] the target is T1, FUS^N-Citrine-PixE fusion protein.
T1 construct: Expressed inside S. cerevisiae cells (strains YEZ231, YEZ232, YEZ555); The listing entry is DNA, not protein; also called FUS^NPixE; EZ-L498
The experiment in a line: microscopy of co-clustering in yeast strain YEZ555, dark against blue light.

Series [2] concerns the molecule itself. Nature of the series: microscopy of self-clustering in yeast (YEZ53), light against dark.
Procedure: Yeast strains were cultured overnight in a 24 well plate covered with foil. SC media was used to avoid the high auto-fluorescence of YPD. The following day, cultures were diluted 1:20 and allowed to grow for 2 hours such that the cells were in exponential phase. Wells of the microscopy plate were coated using 1 mg/mL Concanavalin A (Sigma) dissolved in 20 mM sodium acetate. After washing wells with ddH2O, yeast cultures were transferred and spun down at 1000 rpm for 3 min. All imaging was carried out using a 60X oil immersion objective (NA 1.4) on a Nikon A1 laser scanning confocal microscope. The laser was used at two different wavelengths: 488 nm for activation of Cry2 and 551 nm for visualization of FusionRed. […] Laser settings were 40% intensity for 488 nm and 30% intensity for 561 nm. Exposure times for both wavelengths was 200 ms.

B1: sFUS-FusionRed-PixD fusion protein (other)
chain: MASNDYTQQATQSYGAYPTQPGQGYSQQSSQPYGQQSYSGYSQSTDTSGYGQSSYSSYGQSQNTGYGTQSTPQGYGSTGGYGSSQSSQSSYGQQGGGMVSELIKENMPMKLYMEGTVNNHHFKCTSEGEGKPYEGTQTMRIKVVEGGPLPFAFDILATSFMYGSRTFIKHPPGIPDFFKQSFPEGFTWERVTTYEDGGVLTATQDTSLQDGCLIYNVKVRGVNFPANGPVMQKKTLGWEASTETMYPADGGLEGACDMALKLVGGGHLICNLETTYRSKKPATNLKMPGVYNVDHRLERIKEADDETYVEQHEVAVARYSTGGAGDGGKAATRMSLYRLIYSSQGIPNLQPQDLKDILESSQRNNPANGITGLLCYSKPAFLQVLEGECEQVNETYHRIVQDERHHSPQIIECMPIRRRNFEVWSMQAITVNDLSTEQVKTLVLKYSGFTTLRPSAMDPEQCLNFLLDIAKIYELSDNFFLDL
notes: Expressed inside S. cerevisiae cells (strain YEZ555). sFUS is the first 93 amino acids of the FUS^N domain; The listing entry is DNA, not protein; also called sFUS-FR-PixD; EZ-L767
Consider B1, for which the binding result in series [1] is “binds”.

B2: FUS^N-FusionRed-Cry2 fusion protein (other)
chain: MASASNDYTQQATQSYGAYPTQPGQGYSQQSSQPYGQQSYSGYSQSTDTSGYGQSSYSSYGQSQNTGYGTQSTPQGYGSTGGYGSSQSSQSSYGQQSSYPGYGQQPAPSSTSGSYGSSSQSSSYGQPQSGSYSQQPSYGGQQQSYGQQQSYNPPQGYGQQNQYNSSSGGGGGGGGGGNYGQDQSSMSSGGGSGGGYGNQDQSGGGGSGGYGQQDRGGGGMVSELIKENMPMKLYMEGTVNNHHFKCTSEGEGKPYEGTQTMRIKVVEGGPLPFAFDILATSFMYGSRTFIKHPPGIPDFFKQSFPEGFTWERVTTYEDGGVLTATQDTSLQDGCLIYNVKVRGVNFPANGPVMQKKTLGWEASTETMYPADGGLEGACDMALKLVGGGHLICNLETTYRSKKPATNLKMPGVYNVDHRLERIKEADDETYVEQHEVAVARYSTGGAGDGGKAATRMKMDKKTIVWFRRDLRIEDNPALAAAAHEGSVFPVFIWCPEEEGQFYPGRASRWWMKQSLAHLSQSLKALGSDLTLIKTHNTISAILDCIRVTGATKVVFNHLYDPVSLVRDHTVKEKLVERGISVQSYNGDLLYEPWEIYCEKGKPFTSFNSYWKKCLDMSIESVMLPPPWRLMPITAAAEAIWACSIEELGLENEAEKPSNALLTRAWSPGWSNADKLLNEFIEKQLIDYAKNSKKVVGNSTSLLSPYLHFGEISVRHVFQCARMKQIIWARDKNSEGEESADLFLRGIGLREYSRYICFNFPFTHEQSLLSHLRFFPWDADVDKFKAWRQGRTGYPLVDAGMRELWATGWMHNRIRVIVSSFAVKFLLLPWKWGMKYFWDTLLDADLECDILGWQYISGSIPDGHELDRLDNPALQGAKYDPEGEYIRQWLPELARLPTEWIHHPWDAPLTVLKASGVELGTNYAKPIVDIDTARELLAKAISRTREAQIMIGAAARDPPVATGSGSGSG
notes: Expressed inside S. cerevisiae cells (strains YEZ53, yNS47); The listing entry is DNA, not protein; also called optoDroplets; optoDroplet
For B2, the binding result in series [2] was “binds”.

Source of the values: patent US20210062165A1 (TRUSTEES OF PRINCETON UNIVERSITY, published 2021).
